In article PMC2928021 one finds percent comigrating data, which are given here for one substance.

This test concerns the target anaphase-promoting complex/cyclosome (APC/C), phosphorylated, of mitotic cells (human (endogenous in U2OS)) (UniProt P30260). Put plainly: co-sedimentation.
Chain of UniProt P30260 (P30260 whole entry, looked up, one chain of several): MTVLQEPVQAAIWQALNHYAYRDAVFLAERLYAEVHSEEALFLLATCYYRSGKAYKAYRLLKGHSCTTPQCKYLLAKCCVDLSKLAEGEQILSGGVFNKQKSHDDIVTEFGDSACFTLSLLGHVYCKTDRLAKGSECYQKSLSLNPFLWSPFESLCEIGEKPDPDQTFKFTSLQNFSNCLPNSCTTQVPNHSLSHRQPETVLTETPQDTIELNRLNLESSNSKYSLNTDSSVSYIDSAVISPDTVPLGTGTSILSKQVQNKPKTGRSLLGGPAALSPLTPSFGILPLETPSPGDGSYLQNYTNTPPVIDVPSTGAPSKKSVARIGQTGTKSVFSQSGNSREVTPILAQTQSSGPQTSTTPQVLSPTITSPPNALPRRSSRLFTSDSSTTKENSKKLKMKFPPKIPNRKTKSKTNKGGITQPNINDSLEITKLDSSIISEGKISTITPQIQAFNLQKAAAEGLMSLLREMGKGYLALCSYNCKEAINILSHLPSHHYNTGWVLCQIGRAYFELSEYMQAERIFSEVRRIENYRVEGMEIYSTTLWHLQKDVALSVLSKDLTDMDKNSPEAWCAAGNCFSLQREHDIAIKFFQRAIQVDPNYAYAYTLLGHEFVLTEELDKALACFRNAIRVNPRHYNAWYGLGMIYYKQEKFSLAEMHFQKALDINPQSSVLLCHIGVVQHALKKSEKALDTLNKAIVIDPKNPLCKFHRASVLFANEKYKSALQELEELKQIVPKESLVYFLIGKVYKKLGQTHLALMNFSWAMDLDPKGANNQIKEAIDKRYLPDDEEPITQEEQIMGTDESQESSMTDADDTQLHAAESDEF

For the substance “cyclin B1–N–Cks1–Venus (from UniProt P14635;P61024)”, the percent comigrating came to 40%.
